Test results published in paper PMC3285366.

Biological target: T1, Mps1(1–239) (human), P33981
T1 chain: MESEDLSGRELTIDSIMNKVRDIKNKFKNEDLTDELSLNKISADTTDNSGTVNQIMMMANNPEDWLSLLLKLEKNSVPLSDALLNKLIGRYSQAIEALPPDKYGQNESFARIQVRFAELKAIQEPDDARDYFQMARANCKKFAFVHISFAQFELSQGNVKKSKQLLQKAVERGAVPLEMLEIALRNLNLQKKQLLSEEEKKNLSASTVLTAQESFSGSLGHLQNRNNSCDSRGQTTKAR
Assay: SEC
Details: remark: other sources report otherwise

stoichiometry N: 2
B1: Mps1(1–239), P33981 1-239 (domain or fragment)
chain: MESEDLSGRELTIDSIMNKVRDIKNKFKNEDLTDELSLNKISADTTDNSGTVNQIMMMANNPEDWLSLLLKLEKNSVPLSDALLNKLIGRYSQAIEALPPDKYGQNESFARIQVRFAELKAIQEPDDARDYFQMARANCKKFAFVHISFAQFELSQGNVKKSKQLLQKAVERGAVPLEMLEIALRNLNLQKKQLLSEEEKKNLSASTVLTAQESFSGSLGHLQNRNNSCDSRGQTTKAR
